Results as given in the supplement of paper PMC9732359.
± gives the uncertainty stated by the source.

Test: protein stability index of a GFP-peptide fusion (yeast GPS) (PSI 1-4); higher = more stable; sorted into four equal gates, so the index is relative within each strain
Outline: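 For each peptide, the protein stability index sums the read frequency in every gate after multiplying it by the gate number. Read frequencies came from plasmids that were PCR-amplified from each gate and Illumina-sequenced, with reads assigned to strains by barcodes. The gates were four equal bins of GFP/Cherry fluorescence ratio applied to mid-log yeast in leucine-free medium carrying a pooled library of tiled 17-residue yeast protein peptides fused downstream of GFP on a Cherry-expressing plasmid.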

Sequence: KDDRFVPVRKFKGNNGV [RPN2]
- protein stability index (doa10∆): 2.02 ± 0.07
- protein stability index (pdr5∆): 2.77 ± 0.09
- protein stability index (san1∆): 2.94 ± 0.069
- protein stability index (ubr1∆): 2.28 ± 0.053

Sequence: KDEPVQNDILQESFINT [FAS2]
- protein stability index (doa10∆): 2.94 ± 0.089
- protein stability index (pdr5∆): 3.14 ± 0.12
- protein stability index (san1∆): 3.02 ± 0.052
- protein stability index (ubr1∆): 3.21 ± 0.082

Sequence: KDERDTWIHSEIEELKS [SMC3]
- protein stability index (doa10∆): 3.16 ± 0.18
- protein stability index (pdr5∆): 3.02 ± 0.097
- protein stability index (san1∆): 2.91 ± 0.25
- protein stability index (ubr1∆): 3.19 ± 0.12

Sequence: KDKGVYVVTSDEHPKTL [SIR2]
- protein stability index (doa10∆): 2.78 ± 0.076
- protein stability index (pdr5∆): 3.24 ± 0.075
- protein stability index (san1∆): 3.25 ± 0.055
- protein stability index (ubr1∆): 2.98 ± 0.079

Sequence: KDNDKNLKFLKNKDSLV [SRB4]
- protein stability index (doa10∆): 3.48 ± 0.094
- protein stability index (pdr5∆): 3.21 ± 0.12
- protein stability index (san1∆): 3.28 ± 0.072
- protein stability index (ubr1∆): 3.34 ± 0.068

Sequence: KDNGMLIIDGQIIFGVV [RPO21]
- protein stability index (doa10∆): 1.95 ± 0.12
- protein stability index (pdr5∆): 1.79 ± 0.076
- protein stability index (san1∆): 1.61 ± 0.21
- protein stability index (ubr1∆): 2.73 ± 0.12

Sequence: KDNVEHLVMRAISLGLL [RPN9]
- protein stability index (doa10∆): 2.43 ± 0.075
- protein stability index (pdr5∆): 2.92 ± 0.074
- protein stability index (san1∆): 2.48 ± 0.071
- protein stability index (ubr1∆): 2.76 ± 0.059

Sequence: KDRISSCSSKEKTLVLE [SMC4]
- protein stability index (doa10∆): 2.58 ± 0.097
- protein stability index (pdr5∆): 2.6 ± 0.083
- protein stability index (san1∆): 2.45 ± 0.12
- protein stability index (ubr1∆): 2.88 ± 0.098

Sequence: KDTTGPKAISNFLIKLS [YCS4]
- protein stability index (doa10∆): 2.09 ± 0.11
- protein stability index (pdr5∆): 2.08 ± 0.1
- protein stability index (san1∆): 1.34 ± 0.14
- protein stability index (ubr1∆): 1.52 ± 0.065

Sequence: KEDKSEAIDGNGEIKGE [SNF2]
- protein stability index (doa10∆): 2.23 ± 0.049
- protein stability index (pdr5∆): 2.81 ± 0.083
- protein stability index (san1∆): 2.17 ± 0.073
- protein stability index (ubr1∆): 2.48 ± 0.084

Sequence: KEIDPSQTTQLAGMDVE [FAS2]
- protein stability index (doa10∆): 3.14 ± 0.086
- protein stability index (pdr5∆): 3.28 ± 0.11
- protein stability index (san1∆): 3.15 ± 0.077
- protein stability index (ubr1∆): 3.6 ± 0.069

Sequence: KEKKELQMRLKESEISH [YIL149C/MLP2]
- protein stability index (doa10∆): 2.6 ± 0.22
- protein stability index (pdr5∆): 2.94 ± 0.17
- protein stability index (san1∆): 3.04 ± 0.17
- protein stability index (ubr1∆): 3.04 ± 0.15

Sequence: KELELERKEREDFQKRQ [SWI1]
- protein stability index (doa10∆): 3.25 ± 0.076
- protein stability index (pdr5∆): 3.22 ± 0.078
- protein stability index (san1∆): 3.32 ± 0.068
- protein stability index (ubr1∆): 3.31 ± 0.045

Sequence: KELTRIPGEEVEETEVP [MED4]
- protein stability index (doa10∆): 3.21 ± 0.16
- protein stability index (pdr5∆): 3.23 ± 0.21
- protein stability index (san1∆): 3.02 ± 0.13

Sequence: KENYPWELYTDFNEIVQ [POP3]
- protein stability index (doa10∆): 2.42 ± 0.25
- protein stability index (san1∆): 2.4 ± 0.16

Sequence: KEQENITIQDLLFPKST [DPB4]
- protein stability index (doa10∆): 3.05 ± 0.1
- protein stability index (pdr5∆): 2.64 ± 0.13
- protein stability index (san1∆): 2.52 ± 0.087
- protein stability index (ubr1∆): 2.75 ± 0.086

Sequence: KERISVAAASKILSNLV [PRE2]
- protein stability index (doa10∆): 2.75 ± 0.059
- protein stability index (pdr5∆): 2.69 ± 0.041
- protein stability index (san1∆): 2.78 ± 0.048
- protein stability index (ubr1∆): 2.71 ± 0.034

Sequence: KERLTKEAAAVAEGKSK [RPL8A]
- protein stability index (doa10∆): 3.53 ± 0.16
- protein stability index (pdr5∆): 2.74 ± 0.22
- protein stability index (san1∆): 3.31 ± 0.15
- protein stability index (ubr1∆): 3.1 ± 0.16

Sequence: KERSDGKRHIFDVNTLC [CDC53]
- protein stability index (doa10∆): 1.27 ± 0.052
- protein stability index (pdr5∆): 1.76 ± 0.062
- protein stability index (san1∆): 1.26 ± 0.13
- protein stability index (ubr1∆): 1.92 ± 0.085

Sequence: KESAVISKQKSKLDYIF [SMC1]
- protein stability index (doa10∆): 3.04 ± 0.18
- protein stability index (pdr5∆): 2.81 ± 0.11
- protein stability index (san1∆): 3.05 ± 0.11
- protein stability index (ubr1∆): 2.98 ± 0.12

Sequence: KESDDPSIPLVIIRRLK [POP1]
- protein stability index (doa10∆): 3.12 ± 0.1
- protein stability index (pdr5∆): 2.07 ± 0.064
- protein stability index (san1∆): 3.06 ± 0.068
- protein stability index (ubr1∆): 3.05 ± 0.093

Sequence: KEYISRLWHTLKYYQDL [SNF5]
- protein stability index (doa10∆): 1.47 ± 0.068
- protein stability index (pdr5∆): 1.55 ± 0.06
- protein stability index (san1∆): 1.42 ± 0.1
- protein stability index (ubr1∆): 1.58 ± 0.054

Sequence: KFDIIIVDTSGRHHQEE [SRP54]
- protein stability index (doa10∆): 3.01 ± 0.07
- protein stability index (pdr5∆): 2.94 ± 0.046
- protein stability index (san1∆): 2.71 ± 0.072
- protein stability index (ubr1∆): 3.17 ± 0.06

Sequence: KFFHNGMIYNKLFVSKE [FAS2]
- protein stability index (doa10∆): 2.87 ± 0.089
- protein stability index (pdr5∆): 2.54 ± 0.086
- protein stability index (san1∆): 2.38 ± 0.12
- protein stability index (ubr1∆): 2.58 ± 0.077

Sequence: KFFRVKYENKISTVIEV [SMC3]
- protein stability index (doa10∆): 1.35 ± 0.13
- protein stability index (pdr5∆): 1.2 ± 0.11
- protein stability index (san1∆): 1.09 ± 0.28
- protein stability index (ubr1∆): 1.12 ± 0.087

Sequence: KFHKREVVEAVTVVDTP [RPL3]
- protein stability index (doa10∆): 1.44 ± 0.075
- protein stability index (pdr5∆): 1.55 ± 0.066
- protein stability index (san1∆): 1.63 ± 0.18
- protein stability index (ubr1∆): 1.45 ± 0.069
